Legend:
[1] = biological target: ヒト組換え型CD4 (RepliGen, USA) (human) (UniProt P01730); experiment: SPR (BIACORE 2000, 25 C), KD calculated as kd/ka; mimetic immobilised, soluble CD4 injected
[2] = biological target: ヒト組換え型CD4 (RepliGen, USA) (human) (UniProt P01730); experiment: SPR (BIACORE 2000, 25 C), mimetic immobilised on B1 chip, soluble CD4 injected at 16-330 nM

- Kd [1]: 3.2 nM
- koff [2]: 0.000264 s⁻¹
- kon [2]: 82600 M⁻¹ s⁻¹
Substance: 疑似体 Mk3Tyr-long1SH (cyclic peptide mimetic of the ST40 paratope; MK3Tyr with the Ile between Tyr140 and Asn144 replaced by Lys extended with 3-mercaptopropionic acid)

Source: patent JP2003510672A
